Measurements taken from patent publication US20250361288A1 (Gilead, published 2025).

Tests used:
Test in all cases: phage ELISA
[1] = target: T1, human LTβR extracellular domain fused with an Fc fragment at the C-terminus (human, UniProt P36941 31-227)
T1 construct: extracellular domain; Bought; also called hLTβR; not shown: Fc fragment at the C-terminus
Protocol: (§1) Individual clones from the fourth selection round were grown in 96-well deep well blocks in 100 μl of 2YT broth supplemented with 50 μg/ml ampicillin at 37° C. and 220 rpm for 5 hours. Then, 5 μl of helper phages were added to each well and incubated at 37° C. for 30 minutes. After centrifuging at 3,000 rpm for 10 minutes, the cells were resuspended and grown overnight in 150 μl/well of 2YT broth supplemented with 50 μg/ml ampicillin and 50 μg/ml kanamycin.
(§2) For the ELISA screening, 96-well ELISA plates were coated with target proteins (1 μg/ml in PBS) at 4° C. overnight and then blocked with 2% BSA for 2 hours at room temperature. The supernatant containing phage particles was added to the plates and incubated at room temperature for 1 hour. After incubation, the plates were washed five times with PBST. HRP (horseradish peroxidase) conjugated anti-M13 antibody (Sino Biological, China) was added to the wells and incubated at room temperature for 1 hour. Following another round of washing five times with PBST, 50 μl of TMB (3,3′, 5,5″-tetramethylbenzidine, #34029, ThemoFisher) was added to each well. After 5 minutes, the reaction was stopped by adding 50 μl stop solution (#C1058, Solarbio, China). The absorbance at 450 nm (OD450) was measured using a plate reader (SpectraMax M5, Molecule Devices). Wells coated with BSA were used as negative controls. Phage clones with an ELISA score ratio (target/BSA)>3 were considered positive clones.

[2] = target: T2, human HVEM extracellular domain fused with an Fc fragment at the C-terminus (human, UniProt Q92956 39-202)
T2 construct: extracellular domain; Bought; also called hHVEM; not shown: Fc fragment at the C-terminus
T2 sequence (looked up): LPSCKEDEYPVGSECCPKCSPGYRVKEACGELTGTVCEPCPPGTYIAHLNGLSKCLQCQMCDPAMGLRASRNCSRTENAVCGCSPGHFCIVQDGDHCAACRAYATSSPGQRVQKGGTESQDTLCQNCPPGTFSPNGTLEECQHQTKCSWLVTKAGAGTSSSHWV
Protocol: as §1, §2

[3] = target: T3, mouse LTβR extracellular domain fused with an Fc fragment at the C-terminus (mouse, UniProt P50284 31-223)
T3 construct: extracellular domain; Bought; also called mLTβR; not shown: Fc fragment at the C-terminus
Protocol: as §1, §2

Measured: binding result

T1 sequence (P36941 31-227): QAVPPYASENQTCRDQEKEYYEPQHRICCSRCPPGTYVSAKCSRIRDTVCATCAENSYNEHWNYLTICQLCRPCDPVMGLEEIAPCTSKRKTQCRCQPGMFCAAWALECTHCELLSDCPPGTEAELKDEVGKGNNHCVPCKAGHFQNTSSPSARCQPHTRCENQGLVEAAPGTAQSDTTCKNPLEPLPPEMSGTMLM
T3 sequence (P50284 31-223): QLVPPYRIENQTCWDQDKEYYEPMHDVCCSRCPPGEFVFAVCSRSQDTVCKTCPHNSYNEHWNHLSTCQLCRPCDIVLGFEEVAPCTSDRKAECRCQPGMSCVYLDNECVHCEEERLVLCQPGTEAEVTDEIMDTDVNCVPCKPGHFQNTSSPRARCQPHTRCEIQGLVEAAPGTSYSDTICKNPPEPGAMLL

B1: LIGHT-53 (ligand)
chain: DGPAGSWEQLIQERRSHEVNPAAHLTGANSSLTGSGGPLLWETNLGLAFLRGLSYHDGALVVTKAGYYYIYSKVQLGGVGCPLGLASTITHGLYKRTPRYPEELELLVSQQSPCGRATSSSRVWWDSSFLGGVVHLEAGEKVVVRVSDERLVRTRDGTRSYFGAFMV
notes: Printed mutations: Q117N, L220S, L227T; Soluble protein carries an N-terminal His tag
binds: all assays above

B2: LIGHT-54 (ligand)
chain: DGPAGSWEQLIQERRSHEVNPAAHLTGANSSLTGSGGPLLWETELGLAFLRGLSYHDGALVVTKAGYYYIYSKVQLGGVGCPLGLASTITHGLYKRTPRYPEELELLVSQQSPCGRATSSSRVWWDSSFLGGVVHLEAGEKVVVRVSDERLVRTRDGTRSYFGAFMV
notes: Printed mutations: Q117E, L220S, L227T; Soluble protein carries an N-terminal His tag
binds: all assays above

B3: LIGHT-55 (ligand)
chain: DGPAGSWEQLIQERRSHEVNPAAHLTGANSSLTGSGGPLLWETNLGLAFLRGLSYHDGALVVTKAGYYYIYSKVQLGGVGCPLGLASTITHGLYKRTPRYPEELELLVSQQSPCGRATSSSRVWWDSSFLGGVVHLEAGEKVVVRVTDERLVRTRDGTRSYFGAFMV
notes: Printed mutations: Q117N, L220T, L227T; Soluble protein carries an N-terminal His tag
binds: all assays above

B4: LIGHT-56 (ligand)
chain: DGPAGSWEQLIQERRSHEVNPAAHLTGANSSLTGSGGPLLWETELGLAFLRGLSYHDGALVVTKAGYYYIYSKVQLGGVGCPLGLASTITHGLYKRTPRYPEELELLVSQQSPCGRATSSSRVWWDSSFLGGVVHLEAGEKVVVRVTDERLVRTRDGTRSYFGAFMV
notes: Printed mutations: Q117E, L220T, L227T; Soluble protein carries an N-terminal His tag
binds: all assays above

B5: LIGHT-57 (ligand)
chain: DGPAGSWEQLIQERRSHEVNPAAHLTGANSSLTGSGGPLLWETQLGLAFLRGLSYHDGALVVTKAGYYYIYSKVQLGGVGCPLGLASTITHGLYKRTPRYPEELELLVSQQSPCGRATSSSRVWWDSSFLGGVVHLEAGEKVVVRVSDERLVRTRDGTRSYFGAFMV
notes: Printed mutations: L220S, L227T; Soluble protein carries an N-terminal His tag
binds: all assays above

B6: LIGHT-59 (ligand)
chain: DGPAGSWEQLIQERRSHEVNPAAHLTGANSSLTGSGGPLLWETQLGLAFLRGLSYHDGALVVTKAGYYYIYSKVQLGGVGCPLGLAGPITHGLYKRTPRYPEELELLVSQQSPCGRATSSSRVWWDSSFLGGVVHLEAGEKVVVRVSDERLVRLRDGTRSYFGAFMV
notes: Printed mutations: S160G, T161P, L220S; Soluble protein carries an N-terminal His tag
binds: all assays above

B7: LIGHT-62 (ligand)
chain: DGPAGSWEQLIQERRSHEVNPAAHLTGANSSLTGSGGPLLWETQLGLAFLRGLSYHDGALVVTKAGYYYIYSKVQLGGVGCPLGLAGGITHGLYKRTPRYPEELELLVSQQSPCGRATSSSRVWWDSSFLGGVVHLEAGEKVVVRVTDERLVRLRDGTRSYFGAFMV
notes: Printed mutations: S160G, T161G, L220T; Soluble protein carries an N-terminal His tag
binds: all assays above

B8: LIGHT-63 (ligand)
chain: DGPAGSWEQLIQERRSHEVNPAAHLTGANSSLTGSGGPLLWETQLGLAFLRGLSYHDGALVVTKAGYYYIYSKVQLGGVGCPLGLASGITHGLYKRTPRYPEELELLVSQQSPCGRATSSSRVWWDSSFLGGVVHLEAGEKVVVRVSDERLVRTRDGTRSYFGAFMV
notes: Printed mutations: T161G, L220S, L227T; Soluble protein carries an N-terminal His tag
binds: all assays above

B9: LIGHT-64 (ligand)
chain: DGPAGSWEQLIQERRSHEVNPAAHLTGANSSLTGSGGPLLWETQLGLAFLRGLSYHDGALVVTKAGYYYIYSKVQLGGVGCPLGLASPITHGLYKRTPRYPEELELLVSQQSPCGRATSSSRVWWDSSFLGGVVHLEAGEKVVVRVSDERLVRTRDGTRSYFGAFMV
notes: Printed mutations: T161P, L220S, L227T; Soluble protein carries an N-terminal His tag
binds: all assays above

B10: LIGHT-65 (ligand)
chain: DGPAGSWEQLIQERRSHEVNPAAHLTGANSSLTGSGGPLLWETQLGLAFLRGLSYHDGALVVTKAGYYYIYSKVQLGGVGCPLGLAGTITHGLYKRTPRYPEELELLVSQQSPCGRATSSSRVWWDSSFLGGVVHLEAGEKVVVRVSDERLVRTRDGTRSYFGAFMV
notes: Printed mutations: S160G, L220S, L227T; Soluble protein carries an N-terminal His tag
binds: all assays above

B11: LIGHT-66 (ligand)
chain: DGPAGSWEQLIQERRSHEVNPAAHLTGANSSLTGSGGPLLWETQLGLAFLRGLSYHDGALVVTKAGYYYIYSKVQLGGVGCPLGLAGTITHGLYKRTPRYPEELELLVSQQSPCGRATSSSRVWWDSSFLGGVVHLEAGEKVVVRVTDERLVRTRDGTRSYFGAFMV
notes: Printed mutations: S160G, L220T, L227T; Soluble protein carries an N-terminal His tag
binds: all assays above

B12: LIGHT-67 (ligand)
chain: DGPAGSWEQLIQERRSHEVNPAAHLTGANSSLTGSGGPLLWETQLGLAFLRGLSYHDGALVVTKAGYYYIYSKVQLGGVGCPLGLASSITHGLYKRTPRYPEELELLVSQQSPCGRATSSSRVWWDSSFLGGVVHLEAGEKVVVRVSDERLVRTRDGTRSYFGAFMV
notes: Printed mutations: T161S, L220S, L227T; Soluble protein carries an N-terminal His tag
binds: all assays above

B13: LIGHT-68 (ligand)
chain: DGPAGSWEQLIQERRSHEVNPAAHLTGANSSLTGSGGPLLWETQLGLAFLRGLSYHDGALVVTKAGYYYIYSKVQLGGVGCPLGLAGGITHGLYKRTPRYPEELELLVSQQSPCGRATSSSRVWWDSSFLGGVVHLEAGEKVVVRVSDERLVRTRDGTRSYFGAFMV
notes: Printed mutations: S160G, T161G, L220S, L227T; Soluble protein carries an N-terminal His tag
binds: all assays above

B14: LIGHT-69 (ligand)
chain: DGPAGSWEQLIQERRSHEVNPAAHLTGANSSLTGSGGPLLWETQLGLAFLRGLSYHDGALVVTKAGYYYIYSKVQLGGVGCPLGLAGPITHGLYKRTPRYPEELELLVSQQSPCGRATSSSRVWWDSSFLGGVVHLEAGEKVVVRVSDERLVRTRDGTRSYFGAFMV
notes: Printed mutations: S160G, T161P, L220S, L227T; Soluble protein carries an N-terminal His tag
binds: all assays above

B15: LIGHT-70 (ligand)
chain: DGPAGSWEQLIQERRSHEVNPAAHLTGANSSLTGSGGPLLWETNLGLAFLRGLSYHDGALVVTKAGYYYIYSKVQLGGVGCPLGLASGITHGLYKRTPRYPEELELLVSQQSPCGRATSSSRVWWDSSFLGGVVHLEAGEKVVVRVSDERLVRTRDGTRSYFGAFMV
notes: Printed mutations: Q117N, T161G, L220S, L227T; Soluble protein carries an N-terminal His tag
binds: all assays above

B16: LIGHT-71 (ligand)
chain: DGPAGSWEQLIQERRSHEVNPAAHLTGANSSLTGSGGPLLWETNLGLAFLRGLSYHDGALVVTKAGYYYIYSKVQLGGVGCPLGLASPITHGLYKRTPRYPEELELLVSQQSPCGRATSSSRVWWDSSFLGGVVHLEAGEKVVVRVSDERLVRTRDGTRSYFGAFMV
notes: Printed mutations: Q117N, T161P, L220S, L227T; Soluble protein carries an N-terminal His tag
binds: all assays above

B17: LIGHT-72 (ligand)
chain: DGPAGSWEQLIQERRSHEVNPAAHLTGANSSLTGSGGPLLWETNLGLAFLRGLSYHDGALVVTKAGYYYIYSKVQLGGVGCPLGLAGTITHGLYKRTPRYPEELELLVSQQSPCGRATSSSRVWWDSSFLGGVVHLEAGEKVVVRVSDERLVRTRDGTRSYFGAFMV
notes: Printed mutations: Q117N, S160G, L220S, L227T; Soluble protein carries an N-terminal His tag
binds: all assays above

B18: LIGHT-73 (ligand)
chain: DGPAGSWEQLIQERRSHEVNPAAHLTGANSSLTGSGGPLLWETELGLAFLRGLSYHDGALVVTKAGYYYIYSKVQLGGVGCPLGLASGITHGLYKRTPRYPEELELLVSQQSPCGRATSSSRVWWDSSFLGGVVHLEAGEKVVVRVSDERLVRTRDGTRSYFGAFMV
notes: Printed mutations: Q117E, T161G, L220S, L227T; Soluble protein carries an N-terminal His tag
binds: all assays above

B19: LIGHT-74 (ligand)
chain: DGPAGSWEQLIQERRSHEVNPAAHLTGANSSLTGSGGPLLWETNLGLAFLRGLSYHDGALVVTKAGYYYIYSKVQLGGVGCPLGLAGGITHGLYKRTPRYPEELELLVSQQSPCGRATSSSRVWWDSSFLGGVVHLEAGEKVVVRVSDERLVRTRDGTRSYFGAFMV
notes: Printed mutations: Q117N, S160G, T161G, L220S, L227T; Soluble protein carries an N-terminal His tag
binds: all assays above
